{"source": "patent US20250243290A1", "test_in_all_cases": "peptide-array ELISA [Con't]", "key": {"2…2RPGW": {"target": "2…2RPGW"}, "[1]": {"target": "2…"}, "…2R": {"target": "…2R", "sequence (peptide, as listed by the source)": "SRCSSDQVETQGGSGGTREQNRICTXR"}, "[2]": {"target": "V2…"}, "[3]": {"target": "CQA2TREQNRI2T2RPCAPLRK2…"}, "VPE2LS2…2RPGW": {"target": "VPE2LS2…2RPGW"}, "[4]": {"target": "CSR2…2TRCAPLRK2…"}, "2…2R": {"target": "2…2R"}, "TREQNRI2…2RL": {"target": "TREQNRI2…2RL"}, "LS2…2R": {"target": "LS2…2R"}, "[5]": {"target": "TETSDVV2…"}, "[6]": {"target": "C2…2…"}, "[7]": {"target": "CAPLRK2…2…"}, "[8]": {"target": "VPE2LSCGSR2…"}, "SCGSR2…2": {"target": "SCGSR2…2"}, "S2…2TREQNRIC": {"target": "S2…2TREQNRIC"}, "PE2LS2…2TREQNRIC": {"target": "PE2LS2…2TREQNRIC"}, "QNRI2…2R": {"target": "QNRI2…2R"}, "E2LSCGSR2…2T": {"target": "E2LSCGSR2…2T"}, "[9]": {"target": "…2AGGSGGL2…"}, "LSCGSR2…2T2": {"target": "LSCGSR2…2T2"}, "[10]": {"target": "LWNWVPE2…", "sequence (peptide, as listed by the source)": "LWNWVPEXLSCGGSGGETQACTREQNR"}, "NRI2…2R": {"target": "NRI2…2R"}, "[11]": {"target": "WY2…", "sequence (peptide, as listed by the source)": "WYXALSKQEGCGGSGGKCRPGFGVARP"}, "E2LS2…2RPGW": {"target": "E2LS2…2RPGW"}, "CAPLRK2…2RLC": {"target": "CAPLRK2…2RLC"}, "…2RPGW": {"target": "…2RPGW"}, "[12]": {"target": "NWVPE2…", "sequence (peptide, as listed by the source)": "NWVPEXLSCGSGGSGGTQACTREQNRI"}, "2LSCGSR2…2": {"target": "2LSCGSR2…2"}, "E2LSCGSR2…2": {"target": "E2LSCGSR2…2"}, "[13]": {"target": "EGCRL2…", "sequence (peptide, as listed by the source)": "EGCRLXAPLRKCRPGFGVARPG"}, "LSCGSR2…2": {"target": "LSCGSR2…2"}, "…2…2R": {"target": "…2…2R"}, "2RLCAPLRK2…2APGTFSN": {"target": "2RLCAPLRK2…2APGTFSN"}, "[14]": {"target": "Y2…2…"}, "LS2…2TREQNRIC": {"target": "LS2…2TREQNRIC"}, "[15]": {"target": "DVV2…"}, "C2…22SK2SPGQHC": {"target": "C2…22SK2SPGQHC"}, "LCAPLRK2…2APGTFSN": {"target": "LCAPLRK2…2APGTFSN"}, "PE2LSCGSR2…2T": {"target": "PE2LSCGSR2…2T"}, "…2…2TSTSPTRC": {"target": "…2…2TSTSPTRC"}, "[16]": {"target": "Y2…", "sequence (peptide, as listed by the source)": "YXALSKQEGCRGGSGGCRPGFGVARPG"}, "[17]": {"target": "CG2RL2APLRK2RPGFCQA2TREQNRI2T2RPC"}, "…2RPG": {"target": "…2RPG", "sequence (peptide, as listed by the source)": "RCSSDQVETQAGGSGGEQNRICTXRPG"}, "[18]": {"target": "E2LS2…2…"}, "WNWVPE2…2T2": {"target": "WNWVPE2…2T2"}, "…2…2RPGW": {"target": "…2…2RPGW"}, "CDQVETQA2…2TSTSPTRC": {"target": "CDQVETQA2…2TSTSPTRC"}, "CQA2TREQNRI2T2…2TSTSPTRC": {"target": "CQA2TREQNRI2T2…2TSTSPTRC"}, "LSKQEG2…2APGTFSN": {"target": "LSKQEG2…2APGTFSN"}, "PE2LS2…2RPG": {"target": "PE2LS2…2RPG"}, "NWVPE2…2": {"target": "NWVPE2…2"}, "[19]": {"target": "…2GGSGGL2…"}, "CG2RL2APLRK2…2RLC": {"target": "CG2RL2APLRK2…2RLC"}}, "note": "Several values for one entry are separate records, joined by “and”; a condition that tells them apart may be missing. Equal entries are not always repeated."}
{"substance": "agonistic TNFR2 antibody MR2-1", "values": [{"measurement": "Raw luminescence data", "setting": "2…2RPGW", "value": 224}, {"measurement": "Raw luminescence data", "setting": "[1]", "value": 208}, {"measurement": "Raw luminescence data", "setting": "…2R", "value": 200}, {"measurement": "Raw luminescence data", "setting": "[2]", "value": "222 and 197"}, {"measurement": "Raw luminescence data", "setting": "[3]", "value": 204}, {"measurement": "Raw luminescence data", "setting": "VPE2LS2…2RPGW", "value": 222}, {"measurement": "Raw luminescence data", "setting": "[4]", "value": 210}, {"measurement": "Raw luminescence data", "setting": "2…2R", "value": 223}, {"measurement": "Raw luminescence data", "setting": "TREQNRI2…2RL", "value": 206}, {"measurement": "Raw luminescence data", "setting": "LS2…2R", "value": 218}, {"measurement": "Raw luminescence data", "setting": "[5]", "value": 208}, {"measurement": "Raw luminescence data", "setting": "[6]", "value": 194}, {"measurement": "Raw luminescence data", "setting": "[7]", "value": 223}, {"measurement": "Raw luminescence data", "setting": "[8]", "value": 194}, {"measurement": "Raw luminescence data", "setting": "SCGSR2…2", "value": 192}, {"measurement": "Raw luminescence data", "setting": "S2…2TREQNRIC", "value": 191}, {"measurement": "Raw luminescence data", "setting": "PE2LS2…2TREQNRIC", "value": 224}, {"measurement": "Raw luminescence data", "setting": "QNRI2…2R", "value": 242}, {"measurement": "Raw luminescence data", "setting": "E2LSCGSR2…2T", "value": 225}, {"measurement": "Raw luminescence data", "setting": "[9]", "value": 254}, {"measurement": "Raw luminescence data", "setting": "LSCGSR2…2T2", "value": 226}, {"measurement": "Raw luminescence data", "setting": "[10]", "value": 260}, {"measurement": "Raw luminescence data", "setting": "NRI2…2R", "value": 229}, {"measurement": "Raw luminescence data", "setting": "[11]", "value": 254}, {"measurement": "Raw luminescence data", "setting": "E2LS2…2RPGW", "value": 233}, {"measurement": "Raw luminescence data", "setting": "CAPLRK2…2RLC", "value": 227}, {"measurement": "Raw luminescence data", "setting": "…2RPGW", "value": "276 and 272"}, {"measurement": "Raw luminescence data", "setting": "[12]", "value": 229}, {"measurement": "Raw luminescence data", "setting": "2LSCGSR2…2", "value": 251}, {"measurement": "Raw luminescence data", "setting": "E2LSCGSR2…2", "value": 262}, {"measurement": "Raw luminescence data", "setting": "[13]", "value": 239}, {"measurement": "Raw luminescence data", "setting": "LSCGSR2…2", "value": 274}, {"measurement": "Raw luminescence data", "setting": "…2…2R", "value": 225}, {"measurement": "Raw luminescence data", "setting": "2RLCAPLRK2…2APGTFSN", "value": 245}, {"measurement": "Raw luminescence data", "setting": "[14]", "value": 245}, {"measurement": "Raw luminescence data", "setting": "LS2…2TREQNRIC", "value": 232}, {"measurement": "Raw luminescence data", "setting": "[15]", "value": 243}, {"measurement": "Raw luminescence data", "setting": "C2…22SK2SPGQHC", "value": 263}, {"measurement": "Raw luminescence data", "setting": "LCAPLRK2…2APGTFSN", "value": 262}, {"measurement": "Raw luminescence data", "setting": "PE2LSCGSR2…2T", "value": 275}, {"measurement": "Raw luminescence data", "setting": "…2…2TSTSPTRC", "value": 267}, {"measurement": "Raw luminescence data", "setting": "[16]", "value": 256}, {"measurement": "Raw luminescence data", "setting": "[17]", "value": 244}, {"measurement": "Raw luminescence data", "setting": "…2RPG", "value": 257}, {"measurement": "Raw luminescence data", "setting": "[18]", "value": 233}, {"measurement": "Raw luminescence data", "setting": "WNWVPE2…2T2", "value": 247}, {"measurement": "Raw luminescence data", "setting": "…2…2RPGW", "value": 270}, {"measurement": "Raw luminescence data", "setting": "CDQVETQA2…2TSTSPTRC", "value": 251}, {"measurement": "Raw luminescence data", "setting": "CQA2TREQNRI2T2…2TSTSPTRC", "value": 274}, {"measurement": "Raw luminescence data", "setting": "LSKQEG2…2APGTFSN", "value": 247}, {"measurement": "Raw luminescence data", "setting": "PE2LS2…2RPG", "value": 277}, {"measurement": "Raw luminescence data", "setting": "NWVPE2…2", "value": 258}, {"measurement": "Raw luminescence data", "setting": "[19]", "value": 250}, {"measurement": "Raw luminescence data", "setting": "CG2RL2APLRK2…2RLC", "value": 252}]}
